Reference: publication PMC5293408 (Biochemistry, 2016)
Changes are numbered by the printed parent chain. In names and notes the source's numbering stands. Several values for one entry are separate records, joined by “and”; a condition that tells them apart may be missing. Equal values may be shown once. Read-outs that look alike come from different tables or passages of the source.

T1: hUGDHA136M (human UDP-glucose dehydrogenase A136M) (Homo sapiens, UniProt O60701, A136M)
T1 sequence (O60701 1-494 A136M): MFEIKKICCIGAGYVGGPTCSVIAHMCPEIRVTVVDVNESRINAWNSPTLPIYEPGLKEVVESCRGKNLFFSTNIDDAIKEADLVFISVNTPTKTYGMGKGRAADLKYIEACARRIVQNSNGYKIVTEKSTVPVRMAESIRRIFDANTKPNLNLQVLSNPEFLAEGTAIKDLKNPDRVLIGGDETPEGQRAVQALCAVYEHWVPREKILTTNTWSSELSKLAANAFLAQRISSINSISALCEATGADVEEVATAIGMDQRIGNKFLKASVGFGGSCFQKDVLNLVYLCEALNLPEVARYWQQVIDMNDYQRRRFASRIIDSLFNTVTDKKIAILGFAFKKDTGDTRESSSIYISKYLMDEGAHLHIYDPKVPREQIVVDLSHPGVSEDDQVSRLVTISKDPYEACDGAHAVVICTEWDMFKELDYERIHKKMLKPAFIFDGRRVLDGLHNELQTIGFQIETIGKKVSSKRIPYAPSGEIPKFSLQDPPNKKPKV

B1: Human UDP-glucose dehydrogenase with the A136M substitution (enzyme)
chain: T1 sequence (O60701 1-494 A136M)
B2: Human UDP-glucose dehydrogenase (enzyme, UniProt O60701 1-494, looked up)
chain: T1 sequence (O60701 1-494 A136M) with M136A

Key:
[1] = target: T1, hUGDHA136M (human UDP-glucose dehydrogenase A136M); test: steady-state kinetics, global fit of competitive inhibition; type: biochemical
[2] = substrate: NC(=O)c1ccc[n+]([C@@H]2O[C@H](COP(=O)([O-])OP(=O)(O)OC[C@H]3O[C@@H](n4cnc5c(N)ncnc54)[C@H](O)[C@@H]3O)[C@@H](O)[C@H]2O)c1; test: steady-state NAD+ saturation kinetics; type: biochemical, Homo sapiens; conditions: NAD+ binding domain (NB); varied: cofactor
AUC [3] = target: the molecule itself; test: AUC
AUC [4] = target: the molecule itself; test: AUC; remark: listed apart in the source

| Molecule | Ki [1] [µM] | Km [2] [µM] | stoichiometry N (AUC [3]) | stoichiometry N (AUC [4]) |
| --- | --- | --- | --- | --- |
| O=c1ccn([C@@H]2O[C@H](COP(=O)(O)OP(=O)(O)O[C@H]3OC[C@@H](O)[C@H](O)[C@H]3O)[C@@H](O)[C@H]2O)c(=O)[nH]1 [UDP-xylose] | 4.2 | – | – | – |
| B1 | – | 90 | 6 and 2 and 4 | – |
| B2 | – | – | 6 | 2 and 4 |
